Source: the RNAGym collection of RNA variant scans (doi:10.7554/elife.80360)

B1: HDV Ribozyme (parent)
chain: GGCCGGCAUGGUCCCAGCCUCCUCGCUGGCGCCGGCUGGGCAACAUUCCGAGGGGACCGUCCCCUCGGUAAUGGCGAAUGGGACCCA

Variants of: B1
Test: self-cleavage, relative activity (ratio to wild type); higher = more cleavage; co-transcriptional

Going from GGCCGGCAUGGUCCCAGCCCCCUCACUGGCGCCGGCUGGGCAACAUUCCGAGGGGACCGUCCCCUCGGUAAUGGCGAAUGGGACCCA [U20C G25A] to GGCCGGCAUGGUCCCAGCCUCCUCGCUGGCGCUGGCUGGGCAACAUUCCGAGGAGACCGUCCCCUCGGUAAUGGCGAAUGGGACCCA [C33U G54A], the self-cleavage rises from 0.458 to 1.05.

Compared with GGCCGGCAUGGUCCCAGCCUCCUCGCUGACGCCGGCUGGGAAACAUUCCGAGGGGACCGUCCCCUCGGUAAUGGCGAAUGGGACCCA [G29A C41A], GGCCGGCAUGGUUCCAGCCUCCUCGCUGGCGCCGGCUGGGCAACAUUUCGAGGGGACCGUCCCCUCGGUAAUGGCGAAUGGGACCCA [C13U C48U] is higher in self-cleavage: 0.0405 for the first, 0.642 for the second.

First: GGCCGGCAUGGUCCCAGCCUCCUCGCUGGCGCCGGCUGGGCAACAUUCCGAGGGGACCAUCCGCUCGGUAAUGGCGAAUGGGACCCA [G59A C63G]
Second: GGCCGGCAUGGUCCCAGCCUCCUCGCUGGCGCCGCCUGGGCAACAUUACGAGGGGACCGUCCCCUCGGUAAUGGCGAAUGGGACCCA [G35C C48A]
The self-cleavage of the first is higher: 0.805 for the first, 0.269 for the second.

First: GGCCGGCAUGCUCCCAGCCUCCUCGCUGGCGCCGGCUGGGCCACAUUCCGAGGGGACCGUCCCCUCGGUAAUGGCGAAUGGGACCCA [G11C A42C]
Second: GGCCGGCAGGGUCCCAGCCUCCUCGCUGGCGCCGGCUGGGCAACAUUCCGAGGGGGCCGUCCCCUCGGUAAUGGCGAAUGGGACCCA [U9G A56G]
The self-cleavage of the first is lower: 0.0346 for the first, 0.895 for the second.

First: GGCCGGCAUGGUCCCAGCCUCCUCGCUGGCGCCAGCUGGGGAACAUUCCGAGGGGACCGUCCCCUCGGUAAUGGCGAAUGGGACCCA [G34A C41G]
Second: GGCCGGCAUGGUCCCAGCCUCCUCGCUGGCGCCGGCUGGGCAACAUUCCGAGGGGACCGUCCCCUCGGAAAUGGCGAAAGGGACCCA [U69A U79A]
The self-cleavage of the first is lower: 0.141 for the first, 0.665 for the second.

Going from GGCCGGCAUGUUCCCAGCCUCCUCGCUGGCGCCGGCUGGGCAACAUUCCGAGGGGGCCGUCCCCUCGGUAAUGGCGAAUGGGACCCA [G11U A56G] to GGCCGGCAUGGUCCCAGCCUCCUCGCUGGCGCCGGCUGGGCAACAUUCCGAGGGGACCGCCCCCUCGGUAAUGGCGAAUGUGACCCA [U60C G81U], the self-cleavage rises from 0.378 to 0.424.

Going from GGCCGGCAUGGUCCCAGCCUCCUCGCCGGCGCCGGCUGGACAACAUUCCGAGGGGACCGUCCCCUCGGUAAUGGCGAAUGGGACCCA [U27C G40A] to GGCCGGCAUGGUCCCAGCGUCCUCGCUGGCGCCGGAUGGGCAACAUUCCGAGGGGACCGUCCCCUCGGUAAUGGCGAAUGGGACCCA [C19G C36A], the self-cleavage falls from 0.657 to 0.0277.

First: GCCCGGCAUGGUCCCAGCCUCCUCGCUGGCGCCGGCAGGGCAACAUUCCGAGGGGACCGUCCCCUCGGUAAUGGCGAAUGGGACCCA [G2C U37A]
Second: GGCCGGAAUGGUCCCAGCCUCCUCGCUGGCGCCGGCUGGGCAACAUUCCGAGGGAACCGUCCCCUCGGUAAUGGCGAAUGGGACCCA [C7A G55A]
The self-cleavage of the first is lower: 0.0583 for the first, 0.627 for the second.

Compared with GGCCGCAAUGGUCCCAGCCUCCUCGCUGGCGCCGGCUGGGCAACAUUCCGAGGGGACCGUCCCCUCGGUAAUGGCGAAUGGGACCCA [G6C C7A], GGCCGGCAUGGUCCCAGCUUCCUCGCUGGCGCCGGCUGGGCAACAUUCCGAGGGGACCGUCCCCUCGGUAAUGGCGAAUGGCACCCA [C19U G82C] is lower in self-cleavage: 0.772 for the first, 0.0817 for the second.

Going from GGCCGGCAUGGUCUCAGCCUCCUCGCUGGCGCCGGCUGGGCAACAUUCCGAGGGGACCCUCCCCUCGGUAAUGGCGAAUGGGACCCA [C14U G59C] to GGCCGGCAUGGUCCCAGCCUCCUCGCUGGCGCCGGCUGGGCAACAUUCCGAGGGGACCGUCCCCUCGGUAAUAGCGAAUGCGACCCA [G73A G81C], the self-cleavage falls from 1.01 to 0.425.

Compared with GGCCGGCAUGGUCCCAGCAUCCUCGCUGGCGCCGGCUGGGCAACAUUCCGAGGGGACCGUCCCCUCGGUAAUAGCGAAUGGGACCCA [C19A G73A], GGCCGGCAUGGUCCCAUCCUCCUCGCUGGCGCCGGCUGGGCAACACUCCGAGGGGACCGUCCCCUCGGUAAUGGCGAAUGGGACCCA [G17U U46C] is higher in self-cleavage: 0.0519 for the first, 0.356 for the second.

Compared with GGCCGGCAUGGUCCCAGCCUCCUCGCUGGCGCCGGCUGGGCAACAUCCCGAGGGGACCGUCCCCUCGGUAAUGGCGAAUUGGACCCA [U47C G80U], AGCCGGCAUGGUCCCAGCCUCCUCGCUGGCGCCGGCUGGGCAAUAUUCCGAGGGGACCGUCCCCUCGGUAAUGGCGAAUGGGACCCA [G1A C44U] is lower in self-cleavage: 0.29 for the first, 0.0898 for the second.

Compared with GGCCGGCUUGGUCCCAGCCUCCUCGCUGGCGCCGGCUGGGCAACAUUCCGAGGGGACCGUCCCCUCGGUAAUGGCGAAUGGGACCCG [A8U A87G], GGCCGGCAUGGUCCCAGCCUCCUCGCUGGCGCCGGCUGGGCAACCUUCCGAGGGGACCGUCCCCUCGGUAAUGGCUAAUGGGACCCA [A45C G76U] is higher in self-cleavage: 0.754 for the first, 1.01 for the second.

Going from GGCCGGCAUGGUCCCAGCCUCCUCGCUGGCGCCGGCUGGGCAACAUUCCGAGGGGACCCUCCCCUCGGUAAUUGCGAAUGGGACCCA [G59C G73U] to GGCGGGCAUGGUCCCAGCCUCCUCGCUGGCGCCGGCUGGGCAACAUUCCGAGGGGACCGUCCCCUCGGGAAUGGCGAAUGGGACCCA [C4G U69G], the self-cleavage falls from 0.379 to 0.317.

Going from GGCCGGCAUGGUCCCAGCCUCCUCGCUGGCGCAGGCUGGGCAACAUUCCGAGGGGACCGUCCCCUCGGUAAUGGCGAAUGUGACCCA [C33A G81U] to GGCCGGCAUGGUCCCAGCCUCCUCGCUGGCGCCGGCUGGGCAACAUUCCGAGGCGACCGUCCCCUCGCUAAUGGCGAAUGGGACCCA [G54C G68C], the self-cleavage rises from 0.0978 to 0.346.

First: GGCCGGCAUGGUCCCAGCCUCCUCGCUGGCGCCGGCUGGGCAACAUUCCGAGGGGGCCGUCCCCUCGGUAAUGGCGAAUGGGUCCCA [A56G A83U]
Second: GGCCGGCAUGGUCUCAGCCUGCUCGCUGGCGCCGGCUGGGCAACAUUCCGAGGGGACCGUCCCCUCGGUAAUGGCGAAUGGGACCCA [C14U C21G]
The self-cleavage of the first is higher: 0.684 for the first, 0.125 for the second.
